Laboratory results: patent publication US20230257470A1 (published 2023)
Residue numbers refer to the chain shown, from its start. Names and notes keep the numbering of the source. One block for each binder: values may come before it.

How the values were obtained:
[1] = target: T1, human FcγRIa (human, UniProt P12314 16-292, limits assumed); assay: SPR (Biacore), antibody captured, FcγR analyte, 25 C; normalised to captured antibody, GpH7-B3/GpL16-k0 = 100;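 also: antibodies held on sensor chips through immobilized antigen peptide, Protein A, Protein A/G or Protein L, with HBS-EP+ running buffer and FcγR in solution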
T1 construct: Soluble analyte in SPR; also called hFcgRIa; FcgRIa
T1 sequence (P12314 16-292 limits assumed): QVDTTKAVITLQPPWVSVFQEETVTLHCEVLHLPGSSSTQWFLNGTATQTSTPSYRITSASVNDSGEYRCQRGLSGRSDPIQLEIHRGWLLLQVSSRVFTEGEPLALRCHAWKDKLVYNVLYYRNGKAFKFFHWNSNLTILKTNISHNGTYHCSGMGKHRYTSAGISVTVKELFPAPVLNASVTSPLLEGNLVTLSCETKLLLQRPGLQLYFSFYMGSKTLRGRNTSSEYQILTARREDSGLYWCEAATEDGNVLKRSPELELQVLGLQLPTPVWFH
Description: (§1) Interaction between each modified antibody and Fcγ receptor prepared in the manner described above was analyzed using the BIACORE™ T100 surface plasmon resonance system (GE Healthcare), BIACORE™ T200 surface plasmon resonance system (GE Healthcare), BIACORE™ A100 surface plasmon resonance system or BIACORE™ 4000 surface plasmon resonance system. HBS-EP+(GE Healthcare) was used for the running buffer, and measurements were carried out at 25° C. The chips used were chips in which antigen peptides, Protein A (Thermo Scientific), Protein A/G (Thermo Scientific) or Protein L (ACTIGEN® protein (Alltech or BioVision) were immobilized on the Series S Sensor Chip CM5 (GE Healthcare) or Series S Sensor Chip CM4 (GE Healthcare) by amine coupling, or chips in which preliminarily biotinylated antigen peptides were allowed to interact and then immobilized on the Series S Sensor Chip SA (certified) (GE Healthcare). The target antibodies were captured on these sensor chips, Fcγ receptor diluted with the running buffer was allowed to interact, followed by measurement of the amount of bound antibody. The amounts bound were compared between antibodies. However, since the amount of Fcγ receptor bound depends on the amount of captured antibody, the values used for comparison were first corrected by dividing the amount of Fcγ receptor bound by the captured amount of each antibody. Through reaction with 10 mM glycine-HCl at pH 1.5, the sensor chips were regenerated by washing off antibody captured on the sensor chips and used repeatedly.
(§2) Binding strength was evaluated according to the following method based on the results of analyzing the interaction with each FcγR. […] That value was then further multiplied by 100, and the resulting value was used as an indicator of relative binding activity to each FcγR.

[2] = target: T2, human FcγRIIa(R) (allotype R131) (human, UniProt P12318 36-217); assay: as above
T2 construct: Soluble analyte in SPR; also called hFcgRIIa(R); FcgRIIaR
T2 chain: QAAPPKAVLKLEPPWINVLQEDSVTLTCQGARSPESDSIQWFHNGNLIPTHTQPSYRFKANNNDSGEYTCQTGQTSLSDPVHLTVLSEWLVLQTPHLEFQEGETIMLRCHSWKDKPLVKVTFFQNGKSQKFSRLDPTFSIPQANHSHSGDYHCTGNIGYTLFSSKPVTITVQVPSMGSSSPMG
Description: as §1, §2

[3] = target: T3, human FcγRIIa(H) (allotype H131) (human, UniProt P12318 36-217); assay: as above
T3 construct: Soluble analyte in SPR; also called hFcgRIIa(H); FcgRIIaH
T3 sequence: T2 chain with R133H
Description: as §1, §2

[4] = target: T4, human FcγRIIb (human, UniProt P31994 43-217, limits assumed); assay: as above
T4 construct: Soluble analyte in SPR; also called hFcgRIIb; FcgRIIb
T4 sequence: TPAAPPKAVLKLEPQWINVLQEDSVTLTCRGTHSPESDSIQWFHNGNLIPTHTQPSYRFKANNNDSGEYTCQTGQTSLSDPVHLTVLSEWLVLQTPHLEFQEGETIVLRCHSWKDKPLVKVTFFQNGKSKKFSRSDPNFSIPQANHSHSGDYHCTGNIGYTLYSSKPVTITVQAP
Description: as §1, §2

[5] = target: T5, human FcγRIIIa(F) (allotype F158) (human, UniProt P08637 17-208, limits assumed); assay: as above
T5 construct: also called hFcgRIIIa(F); FcgRIIIaF
Description: as §1, §2

[6] = target: T6, human FcγRIa (human, UniProt P12314 16-292, limits assumed); assay: SPR (Biacore), FcγR over captured antibody; binding amount relative to IL6R-BF648/IL6R-L x100
T6 construct: also called FcyRIa; CD64
T6 sequence (P12314 16-292 limits assumed): as the sequence (P12314 16-292 limits assumed) above

[7] = target: T7, human FcγRIIa type H (human, UniProt P12318 36-217); assay: as above
T7 construct: also called FcyRIIaH; FcγRIIa(H)
T7 sequence: T2 chain with R133H

[8] = target: T8, human FcγRIIb (human, UniProt P31994 43-217, limits assumed); assay: as above
T8 construct: also called FcyRIfb; FcγIIB
T8 sequence: T4 sequence

[9] = target: T9, human FcγRIIIa type V (human, UniProt P08637 17-208, limits assumed); assay: as above
T9 construct: also called FcyRIIIa; FcγRIIIaV

T5 sequence (P08637 other isoform, or with tags, fused parts or gaps limits assumed): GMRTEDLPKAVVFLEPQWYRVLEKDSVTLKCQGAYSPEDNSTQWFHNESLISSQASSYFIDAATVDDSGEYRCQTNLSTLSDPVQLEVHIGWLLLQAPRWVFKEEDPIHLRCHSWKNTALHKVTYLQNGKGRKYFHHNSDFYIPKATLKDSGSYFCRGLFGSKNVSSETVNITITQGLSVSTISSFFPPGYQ

- relative binding activity (parent antibody = 100) [1]: 50 % of control
- relative binding activity (parent antibody = 100) [2]: -1 % of control
- relative binding activity (parent antibody = 100) [3]: 0 % of control
- relative binding activity (parent antibody = 100) [4]: -3 % of control
- relative binding activity (parent antibody = 100) [5]: -1 % of control
B1: GpH7-B3 variant P329H / GpL16-k0 (antibody, human IgG1)
heavy: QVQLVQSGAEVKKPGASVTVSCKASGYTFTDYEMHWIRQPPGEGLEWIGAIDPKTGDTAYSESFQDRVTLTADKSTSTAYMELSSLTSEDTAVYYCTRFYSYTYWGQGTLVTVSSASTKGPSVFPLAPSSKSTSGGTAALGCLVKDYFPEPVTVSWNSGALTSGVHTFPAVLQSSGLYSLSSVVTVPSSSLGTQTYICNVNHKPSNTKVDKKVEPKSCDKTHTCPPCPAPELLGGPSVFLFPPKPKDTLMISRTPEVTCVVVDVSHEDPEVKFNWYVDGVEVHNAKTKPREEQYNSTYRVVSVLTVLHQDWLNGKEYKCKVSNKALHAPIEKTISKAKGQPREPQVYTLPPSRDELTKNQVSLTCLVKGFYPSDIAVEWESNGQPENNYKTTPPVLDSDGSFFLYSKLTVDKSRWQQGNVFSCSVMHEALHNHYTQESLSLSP
light: DIVMTQSPLSLPVTPGEPASISCQASESLVHSNRNTYLHWYLQKPGQSPQLLIYKVSNRFSGVPDRFSGSGSGTDFTLKISRVEAEDVGVYYCSQNTHVPPTFGQGTKVEIE
notes: Anti-glypican-3 human IgG1 with B3 constant region (G1d with K439E); position by EU numbering

- relative binding activity (parent antibody = 100) [1]: 23 % of control
- relative binding activity (parent antibody = 100) [2]: 1 % of control
- relative binding activity (parent antibody = 100) [3]: -1 % of control
- relative binding activity (parent antibody = 100) [4]: -2 % of control
- relative binding activity (parent antibody = 100) [5]: -1 % of control
B2: GpH7-B3 variant P329D / GpL16-k0 (antibody, human IgG1)
heavy: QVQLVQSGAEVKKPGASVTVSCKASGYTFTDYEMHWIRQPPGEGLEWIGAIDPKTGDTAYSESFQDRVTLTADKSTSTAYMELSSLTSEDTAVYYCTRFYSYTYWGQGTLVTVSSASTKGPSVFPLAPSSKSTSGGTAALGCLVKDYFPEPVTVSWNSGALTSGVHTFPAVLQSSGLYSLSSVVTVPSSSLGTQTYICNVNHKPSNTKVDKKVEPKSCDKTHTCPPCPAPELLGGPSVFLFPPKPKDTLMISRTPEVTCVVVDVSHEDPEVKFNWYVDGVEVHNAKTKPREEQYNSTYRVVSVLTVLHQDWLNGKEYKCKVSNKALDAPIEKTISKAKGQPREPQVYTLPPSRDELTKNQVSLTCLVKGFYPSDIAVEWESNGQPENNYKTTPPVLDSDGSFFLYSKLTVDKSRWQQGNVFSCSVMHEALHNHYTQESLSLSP
light: B1 light
notes: Anti-glypican-3 human IgG1 with B3 constant region; position by EU numbering

- relative binding activity (parent antibody = 100) [1]: 60 % of control
- relative binding activity (parent antibody = 100) [2]: 0 % of control
- relative binding activity (parent antibody = 100) [3]: 1 % of control
- relative binding activity (parent antibody = 100) [4]: 1 % of control
- relative binding activity (parent antibody = 100) [5]: 1 % of control
B3: GpH7-B3 variant P329S / GpL16-k0 (antibody, human IgG1)
heavy: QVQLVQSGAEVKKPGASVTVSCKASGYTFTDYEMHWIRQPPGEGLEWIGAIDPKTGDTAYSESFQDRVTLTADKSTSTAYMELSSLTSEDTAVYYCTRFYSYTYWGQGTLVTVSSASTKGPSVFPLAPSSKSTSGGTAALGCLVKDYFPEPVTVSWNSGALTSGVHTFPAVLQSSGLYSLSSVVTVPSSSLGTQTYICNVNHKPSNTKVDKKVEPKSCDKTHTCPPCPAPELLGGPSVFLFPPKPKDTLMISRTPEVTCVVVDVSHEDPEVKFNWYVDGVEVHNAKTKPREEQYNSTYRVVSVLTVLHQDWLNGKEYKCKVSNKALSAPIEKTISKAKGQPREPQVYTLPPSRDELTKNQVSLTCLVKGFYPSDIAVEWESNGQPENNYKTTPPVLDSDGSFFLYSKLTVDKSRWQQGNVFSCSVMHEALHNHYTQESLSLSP
light: B1 light
notes: as for B2

- relative binding activity (parent antibody = 100) [1]: 95 % of control
- relative binding activity (parent antibody = 100) [2]: 28 % of control
- relative binding activity (parent antibody = 100) [3]: 70 % of control
- relative binding activity (parent antibody = 100) [4]: 23 % of control
- relative binding activity (parent antibody = 100) [5]: 61 % of control
B4: GpH7-B3 variant I332R / GpL16-k0 (antibody, human IgG1)
heavy: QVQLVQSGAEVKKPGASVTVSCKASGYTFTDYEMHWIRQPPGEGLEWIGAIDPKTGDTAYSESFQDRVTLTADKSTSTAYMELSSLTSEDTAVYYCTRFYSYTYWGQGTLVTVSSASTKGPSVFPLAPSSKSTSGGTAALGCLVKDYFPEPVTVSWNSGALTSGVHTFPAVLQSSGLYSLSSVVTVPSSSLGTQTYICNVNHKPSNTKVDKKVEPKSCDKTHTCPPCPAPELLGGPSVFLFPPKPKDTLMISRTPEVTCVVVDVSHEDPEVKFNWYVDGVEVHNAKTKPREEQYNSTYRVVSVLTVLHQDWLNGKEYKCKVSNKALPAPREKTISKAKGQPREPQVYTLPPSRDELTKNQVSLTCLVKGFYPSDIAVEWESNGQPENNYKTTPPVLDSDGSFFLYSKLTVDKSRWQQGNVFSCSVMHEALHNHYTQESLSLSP
light: B1 light
notes: as for B2

- relative binding activity (parent antibody = 100) [1]: 92 % of control
- relative binding activity (parent antibody = 100) [3]: 1 % of control
- relative binding activity (parent antibody = 100) [4]: 0 % of control
- relative binding activity (parent antibody = 100) [5]: 4 % of control
B5: GpH7-B3 variant P329G / GpL16-k0 (antibody, human IgG1)
heavy: not shown
light: B1 light
notes: as for B2

- relative binding activity (parent antibody = 100) [1]: 100 % of control
- relative binding activity (parent antibody = 100) [2]: 34 % of control
- relative binding activity (parent antibody = 100) [3]: 26 % of control
- relative binding activity (parent antibody = 100) [4]: 41 % of control
- relative binding activity (parent antibody = 100) [5]: 14 % of control
B6: GpH7-B3 variant I332P / GpL16-k0 (antibody, human IgG1)
heavy: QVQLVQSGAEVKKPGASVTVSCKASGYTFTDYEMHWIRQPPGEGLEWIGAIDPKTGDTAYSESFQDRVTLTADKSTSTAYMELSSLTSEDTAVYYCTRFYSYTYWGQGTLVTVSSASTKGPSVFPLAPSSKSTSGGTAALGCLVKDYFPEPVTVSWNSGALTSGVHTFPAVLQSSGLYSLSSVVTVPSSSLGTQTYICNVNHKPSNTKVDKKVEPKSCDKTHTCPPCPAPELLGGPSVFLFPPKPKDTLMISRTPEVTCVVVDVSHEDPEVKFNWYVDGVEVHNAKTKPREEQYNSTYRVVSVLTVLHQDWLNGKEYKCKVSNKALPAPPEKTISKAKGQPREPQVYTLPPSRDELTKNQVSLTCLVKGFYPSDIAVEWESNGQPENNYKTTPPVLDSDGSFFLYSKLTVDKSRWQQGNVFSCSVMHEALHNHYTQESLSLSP
light: B1 light
notes: as for B2

- relative binding activity (parent antibody = 100) [1]: 76 % of control
- relative binding activity (parent antibody = 100) [2]: -1 % of control
- relative binding activity (parent antibody = 100) [3]: 0 % of control
- relative binding activity (parent antibody = 100) [4]: -3 % of control
- relative binding activity (parent antibody = 100) [5]: 0 % of control
B7: GpH7-B3 variant P329Y / GpL16-k0 (antibody, human IgG1)
heavy: not shown
light: B1 light
notes: as for B2

- relative binding activity (parent antibody = 100) [1]: 94 % of control
- relative binding activity (parent antibody = 100) [2]: 1 % of control
- relative binding activity (parent antibody = 100) [3]: 0 % of control
- relative binding activity (parent antibody = 100) [4]: 0 % of control
- relative binding activity (parent antibody = 100) [5]: 0 % of control
B8: GpH7-B3 variant P329W / GpL16-k0 (antibody, human IgG1)
heavy: not shown
light: B1 light
notes: as for B2

- relative binding activity (parent antibody = 100) [1]: 77 % of control
- relative binding activity (parent antibody = 100) [2]: 12 % of control
- relative binding activity (parent antibody = 100) [3]: 59 % of control
- relative binding activity (parent antibody = 100) [4]: 27 % of control
B9: GpH7-B3 variant I332K / GpL16-k0 (antibody, human IgG1)
heavy: not shown
light: B1 light
notes: as for B2

- relative binding activity (parent antibody = 100) [1]: 33 % of control
- relative binding activity (parent antibody = 100) [2]: -1 % of control
- relative binding activity (parent antibody = 100) [3]: 0 % of control
- relative binding activity (parent antibody = 100) [4]: -2 % of control
- relative binding activity (parent antibody = 100) [5]: -1 % of control
B10: GpH7-B3 variant P329E / GpL16-k0 (antibody, human IgG1)
heavy: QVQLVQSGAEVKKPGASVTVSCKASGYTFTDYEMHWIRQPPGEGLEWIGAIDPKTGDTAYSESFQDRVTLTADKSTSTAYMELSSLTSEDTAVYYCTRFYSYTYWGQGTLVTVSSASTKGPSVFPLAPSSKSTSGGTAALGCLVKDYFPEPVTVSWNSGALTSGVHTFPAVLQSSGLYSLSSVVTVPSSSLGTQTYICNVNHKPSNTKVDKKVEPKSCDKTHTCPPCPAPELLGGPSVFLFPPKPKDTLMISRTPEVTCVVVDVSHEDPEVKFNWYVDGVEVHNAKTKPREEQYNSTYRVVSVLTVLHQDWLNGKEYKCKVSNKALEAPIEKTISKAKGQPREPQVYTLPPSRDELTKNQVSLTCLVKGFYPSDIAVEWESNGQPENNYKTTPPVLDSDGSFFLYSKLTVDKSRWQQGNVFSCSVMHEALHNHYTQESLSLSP
light: B1 light
notes: as for B2

- relative binding activity (parent antibody = 100) [1]: 98 % of control
- relative binding activity (parent antibody = 100) [2]: 72 % of control
- relative binding activity (parent antibody = 100) [3]: 58 % of control
- relative binding activity (parent antibody = 100) [4]: 63 % of control
- relative binding activity (parent antibody = 100) [5]: 34 % of control
B11: GpH7-B3 variant P331K / GpL16-k0 (antibody, human IgG1)
heavy: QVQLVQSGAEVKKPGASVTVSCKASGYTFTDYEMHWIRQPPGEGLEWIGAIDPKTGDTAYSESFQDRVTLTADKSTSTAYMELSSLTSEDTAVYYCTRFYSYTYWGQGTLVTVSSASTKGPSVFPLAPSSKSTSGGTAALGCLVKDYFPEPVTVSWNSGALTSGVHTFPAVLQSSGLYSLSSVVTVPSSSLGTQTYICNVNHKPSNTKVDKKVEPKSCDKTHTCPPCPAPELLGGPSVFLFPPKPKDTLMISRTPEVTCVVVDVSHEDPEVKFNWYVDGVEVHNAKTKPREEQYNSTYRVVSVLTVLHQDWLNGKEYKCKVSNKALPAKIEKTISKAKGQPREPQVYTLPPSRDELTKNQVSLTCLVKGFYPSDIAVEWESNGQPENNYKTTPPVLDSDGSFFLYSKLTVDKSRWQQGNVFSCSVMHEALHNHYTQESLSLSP
light: B1 light
notes: as for B2

- relative binding activity (parent antibody = 100) [1]: 88 % of control
- relative binding activity (parent antibody = 100) [2]: 13 % of control
B12: GpH7-B3 variant P331G / GpL16-k0 (antibody, human IgG1)
heavy: not shown
light: B1 light
notes: as for B2

- relative binding activity (parent antibody = 100) [1]: 58 % of control
- relative binding activity (parent antibody = 100) [2]: 0 % of control
- relative binding activity (parent antibody = 100) [3]: 0 % of control
- relative binding activity (parent antibody = 100) [4]: -3 % of control
- relative binding activity (parent antibody = 100) [5]: 0 % of control
B13: GpH7-B3 variant A330S / GpL16-k0 (antibody, human IgG1)
heavy: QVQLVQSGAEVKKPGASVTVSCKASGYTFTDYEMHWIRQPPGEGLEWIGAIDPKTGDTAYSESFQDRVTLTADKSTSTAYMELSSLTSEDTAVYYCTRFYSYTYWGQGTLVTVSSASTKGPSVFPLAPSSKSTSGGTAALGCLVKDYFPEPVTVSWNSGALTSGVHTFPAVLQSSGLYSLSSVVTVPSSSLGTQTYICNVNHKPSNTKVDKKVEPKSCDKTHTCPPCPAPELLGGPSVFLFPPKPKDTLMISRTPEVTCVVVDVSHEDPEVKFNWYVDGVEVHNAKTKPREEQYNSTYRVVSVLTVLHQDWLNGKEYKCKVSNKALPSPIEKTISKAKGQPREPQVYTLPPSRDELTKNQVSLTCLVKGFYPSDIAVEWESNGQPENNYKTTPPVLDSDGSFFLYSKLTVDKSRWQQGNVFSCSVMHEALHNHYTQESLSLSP
light: B1 light
notes: as for B2

- relative binding activity (parent antibody = 100) [1]: 87 % of control
- relative binding activity (parent antibody = 100) [2]: 42 % of control
- relative binding activity (parent antibody = 100) [3]: 25 % of control
- relative binding activity (parent antibody = 100) [4]: 39 % of control
- relative binding activity (parent antibody = 100) [5]: 56 % of control
B14: GpH7-B3 variant A330P / GpL16-k0 (antibody, human IgG1)
heavy: not shown
light: B1 light
notes: as for B2

- relative binding activity (parent antibody = 100) [1]: 45 % of control
- relative binding activity (parent antibody = 100) [2]: 4 % of control
- relative binding activity (parent antibody = 100) [3]: 5 % of control
- relative binding activity (parent antibody = 100) [4]: 0 % of control
- relative binding activity (parent antibody = 100) [5]: 3 % of control
B15: GpH7-B3 variant P329N / GpL16-k0 (antibody, human IgG1)
heavy: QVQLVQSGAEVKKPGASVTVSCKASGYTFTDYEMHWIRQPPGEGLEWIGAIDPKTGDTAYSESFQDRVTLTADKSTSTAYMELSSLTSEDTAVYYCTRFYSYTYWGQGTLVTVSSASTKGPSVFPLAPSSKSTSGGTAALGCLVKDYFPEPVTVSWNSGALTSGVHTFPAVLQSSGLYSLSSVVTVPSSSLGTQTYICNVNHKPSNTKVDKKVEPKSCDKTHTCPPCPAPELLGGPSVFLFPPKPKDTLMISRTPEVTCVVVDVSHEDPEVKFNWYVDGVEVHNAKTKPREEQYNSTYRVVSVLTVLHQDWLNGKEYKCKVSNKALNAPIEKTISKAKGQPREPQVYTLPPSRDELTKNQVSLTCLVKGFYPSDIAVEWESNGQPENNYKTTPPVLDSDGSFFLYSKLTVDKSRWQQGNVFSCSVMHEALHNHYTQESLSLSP
light: B1 light
notes: as for B2

- relative binding activity (parent antibody = 100) [1]: 95 % of control
- relative binding activity (parent antibody = 100) [2]: 64 % of control
- relative binding activity (parent antibody = 100) [3]: 59 % of control
- relative binding activity (parent antibody = 100) [4]: 55 % of control
- relative binding activity (parent antibody = 100) [5]: 38 % of control
B16: GpH7-B3 variant P331R / GpL16-k0 (antibody, human IgG1)
heavy: not shown
light: B1 light
notes: as for B2

- relative binding [6]: 52 % of IL6R-BF648/IL6R-L
- relative binding [7]: 108 % of IL6R-BF648/IL6R-L
- relative binding [8]: 119 % of IL6R-BF648/IL6R-L
- relative binding [9]: 120 % of IL6R-BF648/IL6R-L
B17: IL6R-BP911/IL6R-L (antibody, human IgG1, name in EU numbering)
heavy: QVQLQESGPGLVKPSETLSLTCAVSGHSISHDHAWSWVRQPPGEGLEWIGFISYSGITNYNPSLQGRVTISRDNSKNTLYLQMNSLRAEDTAVYYCARSLARTTAMDYWGEGTLVTVSSASTKGPSVFPLAPSSKSTSGGTAALGCLVKDYFPEPVTVSWNSGALTSGVHTFPAVLQSSGLYSLSSVVTVPSSSLGTQTYICNVNHKPSNTKVDKKVEPKSCDKTHTCPPCPAPELLGGDSVFLFPPKPKDTLMISRTPEVTCVVVDVSHEDPEVKFNWYVDGVEVHNAKTKPREEQYNSTYRVVSVLTVLHQDWLNGKEYKCKVSNKALPKPIEKTISKAKGQPREPQVYTLPPSRDELTKNQVSLTCLVKGFYPSDIAVEWESNGQPENNYKTTPPVLDSDGSFFLYSKLTVDKSRWQQGNVFSCSVMHEALHNHYTQESLSLSP
light: DIQMTQSPSSLSASVGDRVTITCRASQDISSYLNWYQQKPGKAPKLLIYYTSRLHSGVPSRFSGSGSGTDFTFTISSLQPEDIATYYCQQGNTLPYTFGQGTKVEIK

- relative binding [6]: 140 % of IL6R-BF648/IL6R-L
- relative binding [7]: 1670 % of IL6R-BF648/IL6R-L
- relative binding [8]: 62 % of IL6R-BF648/IL6R-L
- relative binding [9]: 3350 % of IL6R-BF648/IL6R-L
B18: IL6R-G1d/IL6R-L (antibody, human IgG1)
heavy: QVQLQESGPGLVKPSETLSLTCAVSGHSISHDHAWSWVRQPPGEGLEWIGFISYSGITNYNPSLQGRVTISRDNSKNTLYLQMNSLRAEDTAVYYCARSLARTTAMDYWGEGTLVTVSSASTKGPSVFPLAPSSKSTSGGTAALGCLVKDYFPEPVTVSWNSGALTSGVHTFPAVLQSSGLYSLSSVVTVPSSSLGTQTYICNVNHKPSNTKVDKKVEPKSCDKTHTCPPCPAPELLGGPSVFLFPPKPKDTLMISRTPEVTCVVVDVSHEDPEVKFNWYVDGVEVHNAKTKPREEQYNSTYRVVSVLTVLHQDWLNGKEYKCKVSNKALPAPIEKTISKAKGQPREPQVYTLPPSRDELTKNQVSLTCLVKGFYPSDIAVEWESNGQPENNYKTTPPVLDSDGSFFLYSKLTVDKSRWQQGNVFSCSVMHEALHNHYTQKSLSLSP
light: B17 light
notes: Anti-human IL-6 receptor IgG1 with the G1d constant region (C-terminal Gly and Lys removed); also called IgG1
